Consider 3 proteins from article doi:10.1101/2020.05.11.089193 (bioRxiv, 2020).

Data set [1] concerns the molecule itself. Briefly: cryo-EM structure.
Data set [2] concerns the molecule itself. Briefly: cryo-EM structure. This is another data set of the same source.

Where two headings read alike, the source gives them in different places.

B1: Porphyromonas gingivalis ATCC 33277 PorM (natural protein, UniProt B2RLE8 1-516, looked up)
chain: MAVGSNGNANRQKMINLMYLVFIAMMALNVSSEVLDGFDKVDKSLTSSIDGSDKRNNLVLSELNTAYRTNPEKVKVWYERSLVLQKEADSLCTFIDDLKLAIARESDGKDAKVNDIRRKDNLDASSVVMLNPINGKGSTLRKEVDKFRELVATLMTDKAKLKLIEQALNTESGTKGKSWESSLFENMPTVAAITLLTKLQSDVRYAQGEVLADLVKSVDVGDYRVNSITAQVIPQSQIVMSGDTYKANIVLSSVDTTQRPDVFVNGKLLSPENMGLFTATAGAPGTYPVKGYIEMMGNDGVKIRRDFESEYFVTEPMASVAPTMMNVLYAGIDNPINIAVPGVAQQNVSATINNGTLTRRGNLWIARPTKVGSEAIISVTAQSGGRTIQMAKTTLRVRALPDPLPYIEYKDVQGNTKRFKGGRLGKREILAAGGIKAALDDDLLEVNYTVVKFQLVFYDSMGNSIPEVSDGASFSERQKRQIQNLGKGKRFYVTEVIARGPDGIERKIPAIEVIVN
The stoichiometry N is a count of units in the complex or per binding partner. Consider B1, for which the “stoichiometry N” value in “cryo-EM structure [1]” came to 2.

B2: Flavobacterium johnsoniae GldL (natural protein, UniProt Q5EGM4 1-215, looked up)
chain: MALLSKKVMNFAYGMGAAVVIVGALFKITHFEIGPLTGTVMLSIGLLTEALIFALSAFEPVEDELDWTLVYPELANGQARKKEAKAETATDAQGLLSQKLDAMLKEAKVDGELMASLGNSIKNFEGAAKAISPTVDSIAGQKKYAEEMSMAAAQMESLNSLYKVQLESASRNAQANSEIAENAAKLKEQMASMTANIASLNSVYGGMLSAMSNKG
Regarding B2, in “cryo-EM structure [2]”, the “stoichiometry N” value is 5.

B3: Flavobacterium johnsoniae GldM C-terminally truncated after the first folded periplasmic domain (first 225 amino acids) (domain or fragment, UniProt Q5EGM3 1-225, looked up)
chain: MAGGKLTPRQKMINLMYLVFIAMLAMNVSKEVISAFGLMNEKFEAANTSSVTTNESLLTSLDQKAAEAKGEFAKAAETAHKVQAASKEFYDYIGTLKTQAVKGFEVDKETGKMPYEAMDRGDNIDDWFTGDGYTKKGNEIIAKIEKYKSDIKAALGTDKKYAGIISEVEKKFDVSDVKNKEGIKEKYLAYHFKGFPAIASAAKLSAWQNDVKKTEADVYNSALGK
B3: the “stoichiometry N” value in the data set “cryo-EM structure [2]” worked out at 2.
